Experimental data from paper PMC13458767, “C-terminal lysine residues localise NLRP10 at lipid droplets and govern NLRP10 oligomer formation” (EMBO Reports, 2026).
Residue numbers refer to the chain shown, from its start. In names and notes the source's numbering stands. One block for each molecule: values may come before it.

How the values were obtained:
[1] = biological target: human NLRP10ΔHD2–tail (aa 4–482), MBP-tagged recombinant protein (human) (UniProt Q86W26); test: SEC-MALS; MBP-NLRP10 (4–482) at several concentrations; molecular weights determined; no methods told for the SEC-MALS
[2] = biological target: the molecule itself; test: SEC; Superose 6 Increase 10/300 GL or Superdex 200 Increase 10/300 GL; 25 mM Tris pH 7.5, 300 mM NaCl, 5 mM ß-ME, 5% glycerol; peak 1 (void) and peak 2 collected

stoichiometry N [1]: 2
Molecule: human NLRP10ΔHD2–tail (aa 4–482), MBP-tagged recombinant protein (from UniProt Q86W26 4-482) (domain or fragment)

B1: human NLRP10 (aa 4–655), MBP-tev-tagged recombinant protein (natural protein, UniProt Q86W26 4-655, looked up)
chain: AKARKPREALLWALSDLEENDFKKLKFYLRDMTLSEGQPPLARGELEGLIPVDLAELLISKYGEKEAVKVVLKGLKVMNLLELVDQLSHICLHDYREVYREHVRCLEEWQEAGVNGRYNQVLLVAKPSSESPESLACPFPEQELESVTVEALFDSGEKPSLAPSLVVLQGSAGTGKTTLARKMVLDWATGTLYPGRFDYVFYVSCKEVVLLLESKLEQLLFWCCGDNQAPVTEILRQPERLLFILDGFDELQRPFEEKLKKRGLSPKESLLHLLIRRHTLPTCSLLITTRPLALRNLEPLLKQARHVHILGFSEEERARYFSSYFTDEKQADRAFDIVQKNDILYKACQVPGICWVVCSWLQGQMERGKVVLETPRNSTDIFMAYVSTFLPPDDDGGCSELSRHRVLRSLCSLAAEGIQHQRFLFEEAELRKHNLDGPRLAAFLSSNDYQLGLAIKKFYSFRHISFQDFFHAMSYLVKEDQSRLGKESRREVQRLLEVKEQEGNDEMTLTMQFLLDISKKDSFSNLELKFCFRISPCLAQDLKHFKEQMESMKHNRTWDLEFSLYEAKIKNLVKGIQMNNVSFKIKHSNEKKSQSQNLFSVKSSLSHGPKEEQKCPSVHGQKEGKDNIAGTQKEASTGKGRGTEETPKNTYI
notes: MBP is followed by a tev site; no cleavage step is described in the methods; also called NLRP10 (4–655); wild-type NLRP10
binding result [2]: binds

B2: Walker A mutant human NLRP10 (aa 4–655 K179A), MBP-tev-tagged recombinant protein (natural protein, UniProt Q86W26 4-655, looked up)
chain: B1 chain with K176A
notes: NLRP10, human, residues 4-655, Walker A mutant K179A; MBP is followed by a tev site; no cleavage step is described in the methods; also called NLRP10 K179A; K179A mutant
binding result [2]: binds
